Test results: the NTF2 design screens of Basanta et al. (2020)

Assay: protease stability score; higher = more stable; yeast display proteolysis, trypsin and chymotrypsin;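 note: relative to predicted unfolded state with 0 unfolded-like and 1 meaning tenfold more protease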

Q: Which protease stability score does the source give for “SEERHLEELMYKWVRQMIETGDEDLERKLADPHVRSDINGVDLHGREEMIKEIKRLEDWLGIDHREFKTITFINGRIHVHIKLNVNGKDIKSIHIYDVIDGRLKEVSVRFR” here?
A: Its protease stability score is 1.19.

Q: Which protease stability score does the source give for “DEEQRVEEEMAEMQRLWHETGDEESIQKNLDPRTRIVIHINGKEIRLHGREAWLKEVRRLGVKYLRIEDMEVVDGRVHARIHYTVNGVKIRIRVEFYIVDGRMEEIRRHWE” here?
A: Its protease stability score is 0.432.

Q: For “DEEDRFAEEYIRLLHEIIKTGDWHQLKRMVDPNARWDVNGVDVIGMEEYVRVWKDEIDRFKGLRLHPRIRHVDFINGRIHVHSEKKVEYGDKEETFETKRHIFLFNGVDTHFSIRID”, which protease stability score is on record?
A: The protease stability score was 0.278.

Q: For “SEEEEHAEELIRLELEALLTGDEEHMARNLDPNVRININGKDIVGREEVSRFLKHLRVRSIHIEIKDFRVIGNWLHVDGRVHFHGHFDGRKIDSTTQFHMILVKINGRWFIHSVKFQ”, which protease stability score is on record?
A: Its protease stability score is 2.6.

Q: For “DESKEVSEDALRIMIELIKTGDEHLLQRYIDPDVRVDVNGRHTHGWHWVVRQIFEEIKRVDHMRIHLDSERVFNGRVHLDVTIHVHINGVEIDIKITLTFHKFDGRWLFHHIKHK”, which protease stability score is on record?
A: The protease stability score was 0.195.

Q: With “SEDEHIADMVIKELQHILNTGDEDRLRDLMDPNTRFDINGRHIHGREDVAHWLAREVLEMRVEFHLEHWDIVDGRIHIHSNVLIIVGNKIIRIKTEILIIKIDGRWYVEELKFR” as the sequence, how does the protease stability score read?
A: The protease stability score was 1.36.

Q: Which protease stability score does the source give for “DEDRKLFTEATHRLNNVLETGDEDSLLRLMDPNTRYKVNGVELIGREMVKHMFRILMHHWRVKSHDYHDIEIQGDWAVIDSRVDGVIDGRRTHTQLRVESIKIDGKWFDHEVTLE” here?
A: The protease stability score was 0.398.

Q: With “TEEEKELRHLYNRWLKDLQTGDEDSFRHLADPNVRLIVGDKDHHGWETSAQWMRELRERVDHLEIIVDSSHVINGRIESDTTIRLRVGDKTIEYRAEFEIDIVNGKMKRIVVREH” as the sequence, how does the protease stability score read?
A: Its protease stability score is 0.998.

Q: With “DEKQDLWRHLLEQFFRWYQTGDEDLLFKYADPHVRFRQGDKEHHGREEMIRMLREHRHHFGADHFKVETMEIQGDKATFVMHDHVNGVDIEIRVHVVVIDGRIRSFKFERH” as the sequence, how does the protease stability score read?
A: The protease stability score was 1.34.

Q: For “NEDEEMIKTAIELLLRTWKTGDEHSLTELLDPHVRVHINGVDLHGRHAIHWLSRHMRFEEIRVDHFEIVNGRVHLETKVRIHYGDKSDTVESHVISLKVDGKWKTQRVQYH”, which protease stability score is on record?
A: Its protease stability score is 0.954.

Q: With “RDMEHIMKELIHFVLHAVMTGDEEKMRQYADPHVKLNYNGVEVVGMEEILKIWRHIRIEIEDHTVEHISVVDGKLRSDTRVDVHIEFNGRHIRENLHTHVIIYKVDGRWVFKEVRIK” as the sequence, how does the protease stability score read?
A: The protease stability score was 1.84.

Q: With “SEEEHEEREAIEQLTRSLTTGDEHMMTNNMDPNVRIHIDGRDLVGREEAIKWLQEIHKKYKNIKYEIKRIDSFNGRLIVDGRVEYNGRRVDMHLIALKFDGRWLIEEVRVN” as the sequence, how does the protease stability score read?
A: The protease stability score was 2.26.

Q: Which protease stability score does the source give for “SEDDERMKKLLSDIWRLLMTGDEELWAKLADPNVRVDVNGRERHGREEVVKLLRELRHERRGRREEHHTVEDFRIYGDYSEVDYRYWVVFNGQREDVTMHIHIQVVNGRLKEIEIKMR” here?
A: Its protease stability score is 1.51.

Q: Which protease stability score does the source give for “DEERHILEELMRILTEAMHTGDEHLLEWLLDPHMIIEIGDKTLHGRDQILRVVEEIRRHIRRIEVKHSHVQGDKIRIEGHMHSETEFNGRRFSFTVYVEIIIVKINGVWRIRSLHIH” here?
A: Its protease stability score is 1.39.

Q: For “DEDEEATRYALELMKKMHETGDEDSIKHLMDPHTKMDVNGVIFHGREAFHVWLNRFDVIRRFNIKHMKSVGDFLHIEGELDSEVNGKRIVTEVRIVSFKFNGRWHLSSTKIL”, which protease stability score is on record?
A: Its protease stability score is 1.53.

Q: For “DEHEETIKRLAEIMEKWWFTGDEDALRLLLDPHVRIHLHQGDFNLDLIGMEHLRRLIHELIRKLGIDHSILKDRDIQGDKVTIHMELRIGDKTVTSHITMVMINGRLESFKIHFK”, which protease stability score is on record?
A: Its protease stability score is 1.32.

Q: With “DDKQRAYEELTRKTLEVIETGDERMIEEMLDPNVRIHIDGKHVHGMEEATRIFLHEFHHLGFKHFEFKSVIEVDEKLIVTGHMRVDGREVELRIVIWKVNGRWTTESIQIHRL” as the sequence, how does the protease stability score read?
A: The protease stability score was 1.4.

Q: For “SEEEKIAEDLAREIEEDWLTGNEEYIMHLADPNVKSHINIDGKRIDTHGMEELTHWLSRYPNVRIEPKRMDVQGEKITLDFELNIGDKRVRVILYHIIINGRIKEIRIIIHHV”, which protease stability score is on record?
A: Its protease stability score is 0.995.

Q: With “SEEEKLSRELVNEFLRLWKTGDWRRFHELADPDAKQQYNVNGQNFDYHGRDEVTDAVREFLNRLGVDHFHVHDSRIIGEKKEIDGHLNFNGRTHHIEMVVVVINGRVHKIEFHVR” as the sequence, how does the protease stability score read?
A: Its protease stability score is 0.28.

Q: With “DEDTKRVEELMELWIEIWRTGDFKMLHHLLDPNVLLHVDIGDKHINVHGREEFTRFLEEELRKVKNAREEINDEKLVGDKVILDYSIHVNGRTLRVHLEIILIDGRMKVSRVKVK” as the sequence, how does the protease stability score read?
A: Its protease stability score is 2.14.

Q: With “SEDEEAIERFLREFVKAERTGDEKTILSLMDPHVRIHQGDWEVHGRDDLRHFFHRIDHVRSRFHLTHVDHQGDKAIFKGTVEYHIHVDGKDIHSTSSVDIHVRKINGRWLMHNVHIE” as the sequence, how does the protease stability score read?
A: The protease stability score was 1.63.

Q: For “HEVERIVEESDRHLLNSMLTGNEDELWRLLDPNARLDINGVQSIGRDEAYRVFHELLNHLRLREVDVHEMDVQGDKAHLTFKFNGDFNGKRDYLDFQVNSLKINGRWFLHSSSLI”, which protease stability score is on record?
A: The protease stability score was 0.529.

Q: For “NEDEKILEEAARLLFKALHTGDETTMLRLLDPNVRLHINGRDLIGREEMDRWWQELGLERISVHLDHLETHYIGNKIEIYIRGTVEFNGVRREIDVHNHALKVNGRWELKNVEIRHR”, which protease stability score is on record?
A: Its protease stability score is 0.893.

Q: For “DEEDKMAEFFMRLIFRAWLTGDEEELEKFMDPNTKHNLDIDGRNDHQIGRHEIVHHLKHFWRRYDHVQVKIRKYHIQGEKAHLHGHLILFIDGVEIRHNIEIRVVVINGRVHSVTMHIH”, which protease stability score is on record?
A: The protease stability score was 1.79.

Q: For “HETEQRLEHHIKLWFKAFMTGDEELLKFLADPNVRVDDDVNGVRFLNIGMEKLAEWLRKWLRRVPNVKFDLEDVKIFENRTHIDSRLDIDGKEIELHIHLILINGRIQEIRFSVK”, which protease stability score is on record?
A: Its protease stability score is 1.49.

Q: With “SEEEHFAKELHKLFLEWWKTGDEEHLLEFADPDARSEIGDKRHHGREEVSRELLEFRRRIPGVQIRHQHVSVHLIDGKLTTHLHFRVNFNGVEFHETIIYYNDKYNGKWHLKSIIVTIE” as the sequence, how does the protease stability score read?
A: The protease stability score was 0.954.

Q: Which protease stability score does the source give for “SEEEKILDDILKLFLDDVRTGNEDSLHRLADPHVRQDYNGVELHGMELVVHWLVELRVEDWRHKDSDSAENRVHLNGIVDGNINGKKQRREIILVIRKVDGRWFLEHNIVI” here?
A: Its protease stability score is 1.23.

Q: With “SEHELIAHEIVERWVHDVNTGDWENLHRLFDPNTKIDFNGVHLHGRRSLEEWIHEHLRRADHFEVRIKDIRVQGEKSVANTHVNVNINGQEYRRDTSLILIIVDGKVKTMTIRVH” as the sequence, how does the protease stability score read?
A: Its protease stability score is 1.5.

Q: With “DEEKHEALRLTREFLKLFFTGDWEKLVRLIDPDAKVEIGNFESVGRENIAHLLHLLNEEWRINDMRIHSFTVVNGQVRMDTEINGIYGDKNYETRTEIESVVIDGRLKHFSIRER” as the sequence, how does the protease stability score read?
A: Its protease stability score is 1.24.

Q: With “SEEEEMVKIADELIRRSWDTGDEDLFLHLADPNTRIFFNGRTVHGREEVEKMIRHMRIDHYELKRIDVYNGQVVIHGKIEITVNGVTKTHEVDIIIEKINGKWILRSIHHK” as the sequence, how does the protease stability score read?
A: The protease stability score was 1.11.

Q: With “DDEIRFLFKIAHLWMRSHSTGDERVLEHLMDPHVRIDFNGVELHGWKDMLTEWKEIRIIIEHVEIDHYDVQGDKMELNGRISGTFHFNGRTRTTDFRSELRFTVINGKLHSVEIHYR” as the sequence, how does the protease stability score read?
A: The protease stability score was 1.41.

Q: For “DEEKEEYRRAIEDWIKFFITGDFDLLKTLADPNARSEIGNYEFHGMEHISRRIVDIIERFKNMRYSVHSIDFQGDYVILHSYIIYGDKHLHLIVITYKFNGRWRFHSVRVE”, which protease stability score is on record?
A: The protease stability score was 1.26.

Q: For “DEHTEEAKHWVTRFIHALSTGDFEQIERLADPHVRVEIGDKEIHGMEFLSEHVLKFKGIRTNIRHIEIHYYDGRVNVEVDIDIHIGDKTVNSELHIHIEKVDGRWVITSLHIRTR”, which protease stability score is on record?
A: Its protease stability score is 1.46.

Q: With “DEEHELTRKVLTEMWEIFMTGDWKRWHELLDPHVRFVYVQGEFEDVHHGREEVKRLFDKLLKDLGFKHSELTDTRLVGNKAVIDGTIHVGDKIYDFHLNVLVVNGKVKTIEVEIREK” as the sequence, how does the protease stability score read?
A: Its protease stability score is 1.94.

Q: With “SEEEEDTERAMELAHHLLFTGNWEIMLKLFDPHMRLEFNGVDNHGREQVIREIRERIKLLGITNIELEPEEVRVQGDKVILHSRVDYNGKHYETEFVAEKVDGRWFIRSMRYE” as the sequence, how does the protease stability score read?
A: The protease stability score was 1.3.

Q: Which protease stability score does the source give for “DEEEHIERTFKDLFEHALETGDEHLLKRLLDPHARFDINGRDFHGREEVRRFWEETEKKLGIKHSEFRFRRRDHQGDFVRIDLHVIIFIGDKIEHREVEFFLTKIDGVWMIREVRVR” here?
A: Its protease stability score is 0.613.
